Results from patent publication US20150087577A1 (POLYPHOR, published 2015).
*1 amine or outer side, *2 acyl side, *3 side chain or, on linkers, in order; H or OH if unused. Bridges are numbered along the chain shown (N, C = ends). [ ]: non-standard residue; d: D form. IPegDab = L-2-amino-4{2-[2-(2-methoxy-ethoxy)-ethoxy]-acetylamino}-butyric acid, COCCOCCOCC(=O)NCC[C@H](N[*:1])C(=O)[*:2]; N(2-Aminoethyl)Gly = O=C(CN(CCN[*:3])[*:1])[*:2]; 2Nal = N[C@@H](Cc1ccc2ccccc2c1)C(=O)O; Cit = NC(=O)NCCC[C@H](N)C(=O)O; Dab = NCC[C@H](N)C(=O)O

The binders below were run against human CXCR4 (human, UniProt P61073 1-352) (assay: cell-based or functional assay).
Chain of human CXCR4 (P61073 whole entry): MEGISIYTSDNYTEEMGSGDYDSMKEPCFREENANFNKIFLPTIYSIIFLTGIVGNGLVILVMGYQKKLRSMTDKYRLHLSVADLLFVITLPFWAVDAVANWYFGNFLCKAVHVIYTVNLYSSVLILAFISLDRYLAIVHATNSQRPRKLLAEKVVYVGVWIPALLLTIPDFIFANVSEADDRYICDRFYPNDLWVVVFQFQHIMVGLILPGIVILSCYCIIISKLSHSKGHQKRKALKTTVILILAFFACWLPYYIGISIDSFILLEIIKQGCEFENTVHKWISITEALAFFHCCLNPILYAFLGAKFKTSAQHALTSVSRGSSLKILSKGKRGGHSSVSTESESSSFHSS

Binder | IC50 (nM) Ca2+ assay (method 2) | IC50 (nM) Ca2+ assay (method 1)
cyclo(YRTCRG[dP]RRYCYQK[dP]P) (disulfide 4-11; SMILES C[C@@H](O)[C@@H]1NC(=O)[C@H](CCCNC(=N)N)NC(=O)[C@H](Cc2ccc(O)cc2)NC(=O)[C@@H]2CCCN2C(=O)[C@H]2CCCN2C(=O)[C@H](CCCCN)NC(=O)[C@H](CCC(N)=O)NC(=O)[C@H](Cc2ccc(O)cc2)NC(=O)[C@@H]2CSSC[C@H](NC1=O)C(=O)N[C@@H](CCCNC(=N)N)C(=O)NCC(=O)N1CCC[C@@H]1C(=O)N[C@@H](CCCNC(=N)N)C(=O)N[C@@H](CCCNC(=N)N)C(=O)N[C@@H](Cc1ccc(O)cc1)C(=O)N2) [Example 145] | 0.38 nM | –
cyclo(YR[Cit]CRA[dP]RRWCY[Cit]K[dP]P) (disulfide 4-11; SMILES C[C@@H]1NC(=O)[C@H](CCCNC(=N)N)NC(=O)[C@@H]2CSSC[C@H](NC(=O)[C@H](Cc3c[nH]c4ccccc34)NC(=O)[C@H](CCCNC(=N)N)NC(=O)[C@H](CCCNC(=N)N)NC(=O)[C@H]3CCCN3C1=O)C(=O)N[C@@H](Cc1ccc(O)cc1)C(=O)N[C@@H](CCCNC(N)=O)C(=O)N[C@@H](CCCCN)C(=O)N1CCC[C@@H]1C(=O)N1CCC[C@H]1C(=O)N[C@@H](Cc1ccc(O)cc1)C(=O)N[C@@H](CCCNC(=N)N)C(=O)N[C@@H](CCCNC(N)=O)C(=O)N2) [Example 143] | 0.9 nM | –
cyclo(YR[Cit]CRG[dP][IPegDab]RWCY[Cit]K[dP]P) (disulfide 4-11; SMILES COCCOCCOCC(=O)NCC[C@@H]1NC(=O)[C@H]2CCCN2C(=O)CNC(=O)[C@H](CCCNC(=N)N)NC(=O)[C@@H]2CSSC[C@H](NC(=O)[C@H](Cc3c[nH]c4ccccc34)NC(=O)[C@H](CCCNC(=N)N)NC1=O)C(=O)N[C@@H](Cc1ccc(O)cc1)C(=O)N[C@@H](CCCNC(N)=O)C(=O)N[C@@H](CCCCN)C(=O)N1CCC[C@@H]1C(=O)N1CCC[C@H]1C(=O)N[C@@H](Cc1ccc(O)cc1)C(=O)N[C@@H](CCCNC(=N)N)C(=O)N[C@@H](CCCNC(N)=O)C(=O)N2) [Example 142] | 96.9 nM | –
cyclo(LR[Cit]CRG[dP]RR[2Nal]CYQK[dP]P) (disulfide 4-11; SMILES CC(C)C[C@@H]1NC(=O)[C@@H]2CCCN2C(=O)[C@H]2CCCN2C(=O)[C@H](CCCCN)NC(=O)[C@H](CCC(N)=O)NC(=O)[C@H](Cc2ccc(O)cc2)NC(=O)[C@@H]2CSSC[C@H](NC(=O)[C@H](CCCNC(N)=O)NC(=O)[C@H](CCCNC(=N)N)NC1=O)C(=O)N[C@@H](CCCNC(=N)N)C(=O)NCC(=O)N1CCC[C@@H]1C(=O)N[C@@H](CCCNC(=N)N)C(=O)N[C@@H](CCCNC(=N)N)C(=O)N[C@@H](Cc1ccc3ccccc3c1)C(=O)N2) [Example 144] | 0.18 nM | –
cyclo(YR[Cit]C[N(2-Aminoethyl)Gly]G[dP]RR[2Nal]CY[Cit]K[dP]P) (disulfide 4-11; SMILES N=C(N)NCCC[C@@H]1NC(=O)[C@H](CCCNC(=N)N)NC(=O)[C@H]2CCCN2C(=O)CNC(=O)CN(CCN)C(=O)[C@@H]2CSSC[C@H](NC(=O)[C@H](Cc3ccc4ccccc4c3)NC1=O)C(=O)N[C@@H](Cc1ccc(O)cc1)C(=O)N[C@@H](CCCNC(N)=O)C(=O)N[C@@H](CCCCN)C(=O)N1CCC[C@@H]1C(=O)N1CCC[C@H]1C(=O)N[C@@H](Cc1ccc(O)cc1)C(=O)N[C@@H](CCCNC(=N)N)C(=O)N[C@@H](CCCNC(N)=O)C(=O)N2) [Example 138] | 63 nM | –
cyclo(YR[Cit]FRFPRR[2Nal]VY[Cit]K[dP]P) (SMILES CC(C)[C@@H]1NC(=O)[C@H](Cc2ccc3ccccc3c2)NC(=O)[C@H](CCCNC(=N)N)NC(=O)[C@H](CCCNC(=N)N)NC(=O)[C@@H]2CCCN2C(=O)[C@H](Cc2ccccc2)NC(=O)[C@H](CCCNC(=N)N)NC(=O)[C@H](Cc2ccccc2)NC(=O)[C@H](CCCNC(N)=O)NC(=O)[C@H](CCCNC(=N)N)NC(=O)[C@H](Cc2ccc(O)cc2)NC(=O)[C@@H]2CCCN2C(=O)[C@H]2CCCN2C(=O)[C@H](CCCCN)NC(=O)[C@H](CCCNC(N)=O)NC(=O)[C@H](Cc2ccc(O)cc2)NC1=O) [Example 24] | – | 850 nM
cyclo(YR[Cit]CRG[dP]HRWCY[Cit]K[dP]P) (disulfide 4-11; SMILES N=C(N)NCCC[C@@H]1NC(=O)[C@@H]2CSSC[C@H](NC(=O)[C@H](Cc3c[nH]c4ccccc34)NC(=O)[C@H](CCCNC(=N)N)NC(=O)[C@H](Cc3c[nH]cn3)NC(=O)[C@H]3CCCN3C(=O)CNC1=O)C(=O)N[C@@H](Cc1ccc(O)cc1)C(=O)N[C@@H](CCCNC(N)=O)C(=O)N[C@@H](CCCCN)C(=O)N1CCC[C@@H]1C(=O)N1CCC[C@H]1C(=O)N[C@@H](Cc1ccc(O)cc1)C(=O)N[C@@H](CCCNC(=N)N)C(=O)N[C@@H](CCCNC(N)=O)C(=O)N2) [Example 137] | 1.28 nM | –
cyclo(YR[Cit]VR[dR]R[2Nal]FY[Cit]K[dP]P) (SMILES CC(C)[C@@H]1NC(=O)[C@H](CCCNC(N)=O)NC(=O)[C@H](CCCNC(=N)N)NC(=O)[C@H](Cc2ccc(O)cc2)NC(=O)[C@@H]2CCCN2C(=O)[C@H]2CCCN2C(=O)[C@H](CCCCN)NC(=O)[C@H](CCCNC(N)=O)NC(=O)[C@H](Cc2ccc(O)cc2)NC(=O)[C@H](Cc2ccccc2)NC(=O)[C@H](Cc2ccc3ccccc3c2)NC(=O)[C@H](CCCNC(=N)N)NC(=O)[C@@H](CCCNC(=N)N)NC(=O)[C@H](CCCNC(=N)N)NC1=O) [Example 1] | – | 2280 nM
cyclo(YR[Cit]CRG[dP][Cit]RWCY[Cit]K[dP]P) (disulfide 4-11; SMILES N=C(N)NCCC[C@@H]1NC(=O)[C@@H]2CSSC[C@H](NC(=O)[C@H](Cc3c[nH]c4ccccc34)NC(=O)[C@H](CCCNC(=N)N)NC(=O)[C@H](CCCNC(N)=O)NC(=O)[C@H]3CCCN3C(=O)CNC1=O)C(=O)N[C@@H](Cc1ccc(O)cc1)C(=O)N[C@@H](CCCNC(N)=O)C(=O)N[C@@H](CCCCN)C(=O)N1CCC[C@@H]1C(=O)N1CCC[C@H]1C(=O)N[C@@H](Cc1ccc(O)cc1)C(=O)N[C@@H](CCCNC(=N)N)C(=O)N[C@@H](CCCNC(N)=O)C(=O)N2) [Example 136] | 4.1 nM | –
cyclo(YR[Cit]CRG[dP][Dab]R[2Nal]CY[Cit]K[dP]P) (disulfide 4-11; SMILES N=C(N)NCCC[C@@H]1NC(=O)[C@@H]2CSSC[C@H](NC(=O)[C@H](Cc3ccc4ccccc4c3)NC(=O)[C@H](CCCNC(=N)N)NC(=O)[C@H](CCN)NC(=O)[C@H]3CCCN3C(=O)CNC1=O)C(=O)N[C@@H](Cc1ccc(O)cc1)C(=O)N[C@@H](CCCNC(N)=O)C(=O)N[C@@H](CCCCN)C(=O)N1CCC[C@@H]1C(=O)N1CCC[C@H]1C(=O)N[C@@H](Cc1ccc(O)cc1)C(=O)N[C@@H](CCCNC(=N)N)C(=O)N[C@@H](CCCNC(N)=O)C(=O)N2) [Example 135] | 4.7 nM | –
